Experimental data from US20160368993A1 (University of California, published 2016).
Values belong to the binder of their own block, whether it stands above or below them.

Target: T1, αvβ6 integrin (R&D Systems), immobilized (UniProt P06756 31-992; P18564 22-707)
T1 construct: Bought protein captured on the plate by the anti-αv antibody P2W7; also called immobilized αvβ6 integrin
Test: competitive binding ELISA against biotinylated fibronectin on immobilized αvβ6 integrin
Protocol: Separate competitive binding ELISAs were used to determine the binding affinity of the anti-αᵥβ₆ diabody and Cys-diabody relative to biotinylated fibronectin, a known natural ligand of the αᵥβ₆ integrin. Biotinylation of fibronectin was performed according to the manufacturer's instructions (Amersham Biosciences). The P2W7 antibody (anti-αᵥ, 5 μg/mL, Abcam) was plated into wells (50 μL/well) of a 96-well plate (Maxisorp®, Nunc). The plate was incubated at 37° C. for 1 h then washed with PBS (3×). After washing, the wells were blocked with blocking buffer (PBS, 5% bovine serum albumin (BSA), 1% Tween 20) and the plate was incubated at room temperature for 3 hrs, followed by washing with PBS (3×). The αᵥβ₆ integrin (3 μg/mL, R&D Systems) in conjugate buffer (20 mM Tris, 1 mM MnCl2, 150 mM NaCl, 0.1% Tween, 1% BSA) was added to the wells (50 μL/well). The plate was incubated at room temperature for 1 h and washed with wash buffer (20 mM Tris, 1 mM MnCl2, 150 mM NaCl, 0.1% Tween, 3×). […] Extravidin HRP conjugate was detected using 3,3′,5,5′-tetramethylbenzidine (TMB) substrate (50 μL/well) for 10-15 mins at room temperature. The reaction was terminated by the addition of 1N sulfuric acid (50 μL/well) and the absorbance of each well was measured in a Multiscan Ascent plate reader (Thermo) at 450 nm. […]

T1 sequence (P06756 31-992, chain 1 of 2): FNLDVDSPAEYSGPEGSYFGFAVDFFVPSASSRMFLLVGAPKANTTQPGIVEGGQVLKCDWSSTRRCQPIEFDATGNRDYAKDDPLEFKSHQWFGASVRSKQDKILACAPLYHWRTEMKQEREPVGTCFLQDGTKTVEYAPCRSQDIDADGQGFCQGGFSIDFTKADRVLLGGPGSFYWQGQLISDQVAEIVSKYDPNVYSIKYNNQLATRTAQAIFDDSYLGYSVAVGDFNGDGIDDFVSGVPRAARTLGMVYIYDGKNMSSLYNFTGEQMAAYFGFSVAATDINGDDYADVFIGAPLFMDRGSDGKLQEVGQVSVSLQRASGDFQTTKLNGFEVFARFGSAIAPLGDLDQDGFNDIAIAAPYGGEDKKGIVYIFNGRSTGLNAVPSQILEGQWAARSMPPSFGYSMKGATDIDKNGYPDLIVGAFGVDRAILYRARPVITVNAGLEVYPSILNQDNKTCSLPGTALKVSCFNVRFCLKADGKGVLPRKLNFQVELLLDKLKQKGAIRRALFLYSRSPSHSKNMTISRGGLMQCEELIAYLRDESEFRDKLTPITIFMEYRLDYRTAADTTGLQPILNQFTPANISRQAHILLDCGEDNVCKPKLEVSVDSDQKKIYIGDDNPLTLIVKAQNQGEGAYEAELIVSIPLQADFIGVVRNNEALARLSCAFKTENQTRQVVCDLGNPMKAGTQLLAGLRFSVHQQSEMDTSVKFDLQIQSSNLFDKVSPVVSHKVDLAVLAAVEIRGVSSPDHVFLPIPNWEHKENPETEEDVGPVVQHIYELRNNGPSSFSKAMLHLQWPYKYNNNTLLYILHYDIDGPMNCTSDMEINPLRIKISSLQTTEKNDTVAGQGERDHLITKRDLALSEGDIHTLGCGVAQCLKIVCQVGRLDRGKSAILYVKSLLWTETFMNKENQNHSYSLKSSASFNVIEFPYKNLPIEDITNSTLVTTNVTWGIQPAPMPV
T1 sequence (P18564 22-707, chain 2 of 2): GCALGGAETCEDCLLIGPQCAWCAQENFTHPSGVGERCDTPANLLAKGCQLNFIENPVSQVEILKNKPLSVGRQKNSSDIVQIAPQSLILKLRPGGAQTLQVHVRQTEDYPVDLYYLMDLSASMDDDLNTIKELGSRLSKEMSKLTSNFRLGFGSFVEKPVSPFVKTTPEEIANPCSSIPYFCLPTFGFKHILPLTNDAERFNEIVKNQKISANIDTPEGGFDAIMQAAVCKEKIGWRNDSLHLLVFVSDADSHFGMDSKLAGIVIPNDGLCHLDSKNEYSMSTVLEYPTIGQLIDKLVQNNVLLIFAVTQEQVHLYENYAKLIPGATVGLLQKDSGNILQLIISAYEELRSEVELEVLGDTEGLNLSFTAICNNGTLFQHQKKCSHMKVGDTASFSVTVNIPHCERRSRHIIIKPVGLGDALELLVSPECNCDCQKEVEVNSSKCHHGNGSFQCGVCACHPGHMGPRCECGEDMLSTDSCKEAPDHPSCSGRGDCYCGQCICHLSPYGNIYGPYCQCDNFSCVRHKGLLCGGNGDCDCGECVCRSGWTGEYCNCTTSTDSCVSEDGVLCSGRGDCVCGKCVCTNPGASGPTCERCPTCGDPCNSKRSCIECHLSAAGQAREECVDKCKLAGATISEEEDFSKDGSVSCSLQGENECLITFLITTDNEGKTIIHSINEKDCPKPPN

IC50: 0.8 nM
B1: anti-αvβ6 diabody (other)
scFv: EVQLVESGGGLVQPGGSLRLSCAASGFTFSRYVMSWVRQAPGKGLEWVASISSGGRMYYPDTVKGRFTISRDNAKNSLYLQMNSLRAEDTAVYYCARGSIYDGYYVFPYWGQGTLVTVSSGGSEIVLTQSPATLSLSPGERATLSCSASSSVSSSYLYWYQQKPGQAPRLLIYSTSNLASGIPARFSGSGSGTDFTLTISSLEPEDFAVYYCHQWSTYPPTFGGGTKVEIKHHHHHH
notes: Non-covalent dimer of two VH-G2S-VL-His6 chains (diabody), secreted from 293-F cells; also called B6DiaR-G2S; parental anti-αvβ6 diabody

IC50: 0.6 nM
B2: anti-αvβ6 Cys-diabody (other)
scFv: EVQLVESGGGLVQPGGSLRLSCAASGFTFSRYVMSWVRQAPGKGLEWVASISSGGRMYYPDTVKGRFTISRDNAKNSLYLQMNSLRAEDTAVYYCARGSIYDGYYVFPYWGQGTLVTVSSGGSEIVLTQSPATLSLSPGERATLSCSASSSVSSSYLYWYQQKPGQAPRLLIYSTSNLASGIPARFSGSGSGTDFTLTISSLEPEDFAVYYCHQWSTYPPTFGGGTKVEIKHHHHHHGGC
modifications: C-terminal engineered cysteines of the two chains form an interchain disulfide
notes: Covalent dimer; also called disulfide-stabilized anti-αvβ6 Cys-diabody; B6DiaR-G2S-Cys
